The source of these data is patent US20180142030A1 (Bristol-Myers Squibb, published 2018).

Positions count from the first letter of the chain named. In names and notes the source's numbering stands.

The target of assay [1] is T1, FcγRIIb (human, UniProt P31994 43-217, limits assumed).
T1 construct: Construct not described; also called hCD32b/FcγRIIb
T1 sequence (looked up): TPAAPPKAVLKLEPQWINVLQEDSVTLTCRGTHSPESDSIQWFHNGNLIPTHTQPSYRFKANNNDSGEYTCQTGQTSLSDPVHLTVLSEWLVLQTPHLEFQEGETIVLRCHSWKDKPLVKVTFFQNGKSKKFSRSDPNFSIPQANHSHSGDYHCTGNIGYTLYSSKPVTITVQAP
Kind of assay: BLI (ForteBio Octet), %Rmax at 1 µM hCD32b/FcγRIIb. As to the method: (§1) See Example 8. Antibody names including “-sup” represent supernatants from antibody producing cells, whereas others are purified antibodies. Data are presented as percentages of a maximum receptor binding value for each combination of antibody and receptor, as measured in a ForteBio Octet system. See, e.g., Example 3. Each cluster of three bars represents, from left to right, binding to hCD32a/FcγRIIa-H131 (10 μM) (hatched bars), […] (10 μM) (black bars), and hCD32b/FcγRIIb (1 μM) (white bars).
(§2) Supernatants were obtained from cells expressing these antibodies and assayed for binding to hCD32/FcγRII. Selected purified antibodies without mutations at position 270 were used as controls.

In assay [2] the target is T2, FcγRIIa-R131 (human, UniProt P12318 34-218, limits assumed).
T2 construct: Construct not described
T2 sequence (looked up): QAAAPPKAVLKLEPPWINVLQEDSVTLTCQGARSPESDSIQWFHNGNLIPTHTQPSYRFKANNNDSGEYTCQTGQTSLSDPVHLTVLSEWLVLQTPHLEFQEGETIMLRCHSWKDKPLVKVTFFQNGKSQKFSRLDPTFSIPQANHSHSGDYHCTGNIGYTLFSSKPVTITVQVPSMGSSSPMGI
Kind of assay: BLI (ForteBio Octet), %Rmax at 10 µM FcγRIIa-R131 (CD32a-R131 on the sheet). As to the method:
as §1, §2

Assay [3] concerns the target T3, FcγRIIa-H131 (human, UniProt P12318 34-218, limits assumed).
T3 construct: Construct not described; also called hCD32a/FcγRIIa-H131
T3 sequence (looked up): T2 sequence (looked up) with R134H
Kind of assay: BLI (ForteBio Octet), % of maximum receptor binding (%Rmax) at 10 µM hCD32a/FcγRIIa-H131. As to the method: as §1, §2

Assay [4] deals with T3, FcγRIIa-H131. Kind of assay: BLI (ForteBio Octet), %Rmax at 10 µM hCD32a/FcγRIIa-H131. How it is done: as §1, §2
For assay [5], the target named is T4, recombinant human CD40 monomer (human, UniProt P25942 21-193).
T4 construct: also called huCD40-monomer; soluble human CD40
Kind of assay: BLI (Octet RED); run in parallel with 5F11-45.

For assay [6], the target named is T4, recombinant human CD40 monomer. Kind of assay: BLI (Octet RED); antibody supernatant captured on protein A sensors, huCD40-monomer in solution. From the text:
The closest matching human germline region sequence was selected for each mouse variable domain, and these human framework regions were used to replace murine frameworks in the “CDR graft” versions of the antibodies. Additional amino acid substitutions, such as framework back-mutations, were then made as necessary to restore the binding affinity of the humanized antibody. Further amino acid substitutions were made to eliminate sequence liabilities. The sequence relationships between the various forms of the antibodies of the present invention are provided at Table 6. The binding of various agonistic anti-huCD40 antibodies to soluble human CD40 was determined by Biolayer Interferometry (BLI) analysis using a Fortebio Octet RED (Rapid system—Extended Detection) label-free interaction analysis instrument. All studies were performed in 10 mM NaₓPO₄, 130 mM NaCl, 0.05% Surfactant P20 (pH 7.1) at 25° C. Briefly, anti-huCD40 antibody supernatants (diluted to 10 μg/ml or captured undiluted if supernatant concentration was less than 10 μg/ml) were captured on protein A coated biosensors (Pall Fortebio #18-5010) using a loading time of 90 s and shake speed of 1000 rpm. Supernatants were first screened for binding to 1 μM recombinant human CD40 monomer (huCD40-monomer) using 180 s association and dissociation times, at 1000 rpm, with two 15 s conditioning steps using 10 mM glycine pH 1.5 in between binding cycles.

T4 sequence (P25942 21-193 limits assumed): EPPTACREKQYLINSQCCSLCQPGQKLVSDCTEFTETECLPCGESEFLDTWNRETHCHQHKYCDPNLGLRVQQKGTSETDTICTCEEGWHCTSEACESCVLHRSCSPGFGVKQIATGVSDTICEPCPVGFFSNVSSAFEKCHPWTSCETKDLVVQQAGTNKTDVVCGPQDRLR

B1: 12D6-24 V4 (antibody, human IgG1, kappa)
heavy: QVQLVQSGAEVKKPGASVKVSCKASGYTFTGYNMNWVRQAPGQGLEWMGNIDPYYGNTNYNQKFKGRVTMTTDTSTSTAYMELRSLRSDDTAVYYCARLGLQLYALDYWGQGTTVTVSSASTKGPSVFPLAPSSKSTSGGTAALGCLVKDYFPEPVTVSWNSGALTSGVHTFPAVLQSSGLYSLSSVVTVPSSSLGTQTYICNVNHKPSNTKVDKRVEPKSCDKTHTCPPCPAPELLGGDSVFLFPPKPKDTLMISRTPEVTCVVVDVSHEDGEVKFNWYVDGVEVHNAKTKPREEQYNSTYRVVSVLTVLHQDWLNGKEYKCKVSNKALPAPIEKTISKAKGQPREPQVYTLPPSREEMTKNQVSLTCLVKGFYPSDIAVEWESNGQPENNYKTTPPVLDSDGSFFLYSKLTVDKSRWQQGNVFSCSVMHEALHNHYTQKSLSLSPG
light: DIVMTQTPLSLPVTPGEPASISCRSSQSLVHSNANTYLHWYLQKPGQSPQLLIYKLTNRFFGVPDRFSGSGSGTDFTLKISRVEAEDVGVYYCSQSIHVPWTFGGGTKVEIKRTVAAPSVFIFPPSDEQLKSGTASVVCLLNNFYPREAKVQWKVDNALQSGNSQESVTEQDSKDSTYSLSSTLTLSKADYEKHKVYACEVTHQGLSSPVTKSFNRGEC
B1: the binding result in assay [1], in assay [2] and in assay [3] was “binds” in each case.

B2: 12D6-24-V9-DS-sup (antibody)
heavy: QVQLVQSGAEVKKPGASVKVSCKASGYTFTGYNMNWVRQAPGQGLEWMGNIDPYYGNTNYNQKFKGRVTMTTDTSTSTAYMELRSLRSDDTAVYYCARLGLQLYALDYWGQGTTVTVSSASTKGPSVFPLAPSSKSTSGGTAALGCLVKDYFPEPVTVSWNSGALTSGVHTFPAVLQSSGLYSLSSVVTVPSSSLGTQTYICNVNHKPSNTKVDKRVEPKSCDKTHTCPPCPAPELLGDDSVFLFPPKPKDTLMISRTPEVTCVVVDVSHESGEVKFNWYVDGVEVHNAKTKPREEQYNSTYRVVSVLTVLHQDWLNGKEYKCKVSNKALPRPIEKTISKAKGQPREPQVYTLPPSREEMTKNQVSLTCLVKGFYPSDIAVEWESNGQPENNYKTTPPVLDSDGSFFLYSKLTVDKSRWQQGNVFSCSVMHEALHNHYTQKSLSLSPG
light: B1 light
notes: Tested as supernatant of antibody-producing cells; also called 12D6-24 V9 D270S; copies: 2 + 2
For B2, the binding result in assay [1], in assay [4] and in assay [2] was “binds” in each case.

B3: 12D6-24-V9-DQ-sup (antibody)
heavy: B2 heavy with S272Q
light: B1 light
notes: Tested as supernatant of antibody-producing cells; also called 12D6-24 V9 D270Q; copies: 2 + 2
Consider B3, for which the binding result in assay [1], in assay [4] and in assay [2] was “binds” throughout.

B4: 5F11-45 V9 (antibody, human IgG1, kappa)
heavy: QVQLVQSGAEVKKPGSSVKVSCKASGYTFTDLSMHWVRQAPGQGLEWMGYITPSSGYTAYNQKFKGKTTLTADKSTSTAYMELSSLRSEDTAVYYCARLILQRGAYWGQGTLVTVSSASTKGPSVFPLAPSSKSTSGGTAALGCLVKDYFPEPVTVSWNSGALTSGVHTFPAVLQSSGLYSLSSVVTVPSSSLGTQTYICNVNHKPSNTKVDKRVEPKSCDKTHTCPPCPAPELLGDDSVFLFPPKPKDTLMISRTPEVTCVVVDVSHEDGEVKFNWYVDGVEVHNAKTKPREEQYNSTYRVVSVLTVLHQDWLNGKEYKCKVSNKALPRPIEKTISKAKGQPREPQVYTLPPSREEMTKNQVSLTCLVKGFYPSDIAVEWESNGQPENNYKTTPPVLDSDGSFFLYSKLTVDKSRWQQGNVFSCSVMHEALHNHYTQKSLSLSPG
light: DIVLTQSPDSLAVSLGERATINCRASKNVDSYGNSFMHWYQQKPGQPPKLLIYRASNLESGVPDRFSGSGSGTDFTLTISSLQAEDVAVYYCQQSNEDPLTFGQGTKLEIKRTVAAPSVFIFPPSDEQLKSGTASVVCLLNNFYPREAKVQWKVDNALQSGNSQESVTEQDSKDSTYSLSSTLTLSKADYEKHKVYACEVTHQGLSSPVTKSFNRGEC
With B4, the binding result in assay [1], in assay [4] and in assay [2] was “binds” throughout.

B5: 5F11-45 V4 (antibody, human IgG1, kappa)
heavy: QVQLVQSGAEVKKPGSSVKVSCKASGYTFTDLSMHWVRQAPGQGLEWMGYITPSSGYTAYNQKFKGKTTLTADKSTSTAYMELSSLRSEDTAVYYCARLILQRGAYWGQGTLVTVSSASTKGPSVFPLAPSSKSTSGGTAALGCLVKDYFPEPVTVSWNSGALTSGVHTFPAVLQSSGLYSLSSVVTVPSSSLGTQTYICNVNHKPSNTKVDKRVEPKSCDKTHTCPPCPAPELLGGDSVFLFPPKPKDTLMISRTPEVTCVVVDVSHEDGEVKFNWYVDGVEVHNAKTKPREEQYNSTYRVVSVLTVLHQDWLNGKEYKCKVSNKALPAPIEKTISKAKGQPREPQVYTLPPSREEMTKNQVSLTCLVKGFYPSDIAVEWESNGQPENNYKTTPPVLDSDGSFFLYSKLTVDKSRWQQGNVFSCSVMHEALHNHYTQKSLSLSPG
light: B4 light
On to B5, for which the binding result in assay [1], in assay [4] and in assay [2] was “binds” in each case.

B6: 5F11-45 V9 D270E (antibody, human IgG1, kappa)
heavy: B4 heavy with D270E
light: B4 light
As to B6, the binding result in assay [1], in assay [4] and in assay [2] was “binds” throughout.

B7: 5F11-45-V9-DQ-sup (antibody, human IgG1, kappa)
heavy chain: B4 heavy with D270Q
light chain: B4 light
notes: Tested as supernatant of antibody-producing cells; also called 5F11-45 V9 D270Q
Turning to B7, the binding result in assay [1], in assay [4] and in assay [2] was “binds” in each case.

B8: 5F11-45-V9-DA-sup (antibody, human IgG1, kappa)
heavy chain: B4 heavy with D270A
light chain: B4 light
notes: Tested as supernatant of antibody-producing cells; also called 5F11-45 V9 D270A
Consider B8, for which the binding result in assay [1], in assay [4] and in assay [2] was “binds” throughout.

B9: 5F11-45-V9-DS-sup (antibody, human IgG1, kappa)
heavy chain: B4 heavy with D270S
light chain: B4 light
notes: Tested as supernatant of antibody-producing cells; also called 5F11-45 V9 D270S
For the molecule B9, the binding result in assay [1], in assay [4] and in assay [2] was “binds” each time.

B10: 5F11 (parental) (antibody, V domains shown)
VH: QVQLQQSAAELARPGASVKMSCKASGYTFTDLSMHWIKQRPGQGLEWIGYITPSSGYTAYNQKFKGKTTLTADKSSSTAYMQLSSLTSEDSAVYYCARLILQRGAYWGQGTLVTVSA
VL: DIVLTQSPASLAVSLGQRATISCRASKNVDSYGNSFMHWYQQKPGQPPKLLIYRASNLESGIPARFGGSGSGTDFTLTINPVEADDVATYYCQQSNEDPLTFGAGTKLELK
notes: Mouse variable domains; also called 1802.3717.5F11.A11.E7; mAb 5F11
On to B10, for which the Kd in assay [5] is 8.2 nM; in assay [6], 4.7 nM.
